This is an account of results in patent US12168773B2, “Engineered phosphoenolpyruvate carboxylase enzymes” (The Regents of the University of California, priority 2019, dated 2024).

Data set [1] concerns the target T1, Zea mays PPC1 (ZmPPC1, C4 PEPC) (Zea mays, UniProt P04711, A655V).
T1 construct: 6xHis (N); made in house; host or cells: E. coli BL21 CodonPlus (pET22b)
The data set can be described thus: malate dehydrogenase coupled PEPC enzymatic assay, maize C4 PPC1 and engineered variants. The data set is classed as biochemical. The conditions noted are these: Kcat/Km. An excerpt: (§1) For both Arabidopsis C3 PPC1 (AtPPC1) and maize C4 PPC1 (ZmPPC1), the entire coding sequence for each was cloned into pET22b, which contains an amino-terminal 6×-HIS tag for protein purification, and expression was driven by the T7 promoter and lac operon. Relevant mutations were introduced by the Stratagene QuikChange mutagenesis kit using PCR amplification. Both wild type and mutant cDNA constructs were sequenced entirely following cloning into pet22b. Proteins were produced by growing transformed E. coli (BL21 CodonPlus) in autoinduction medium at 18° C. for 16 hours. Proteins were isolated by sonication of bacterial cells followed by passage over a nickel sepharose affinity column, elution with imidazole and separation on a GE SUPERDEX HILOAD 200 PG 16/60 all using an AKTA FPLC.
(§2) Enzyme analysis was conducted in vitro using protein that was generated by expression in E. coli using the pET22b vector. For expression, pET22b constructs were transformed into E. coli BL21-DE3 codon plus RIL cells and grown at 37° C. in autoinduction media until reaching an OD=1 after which these were transferred to 18° C. for 18 hours. Samples were collected and lysed by sonication. Protein was purified by passage through a His-trap nickel affinity column on an Akta FPLC and then eluted with 400 mM imidazole. Partially purified protein was then separated on an FPLC equipped with a HiPrep S200 size exclusion column (16/60) after which collected sample was concentrated by centrifugation to a final concentration of 4 mg/ml in 50% glycerol. Samples were stored at −20° C.
(§3) For enzymatic assays, a malate dehydrogenase coupled reaction was conducted with a range of substrate concentrations (0-7.5 mM phosphoenolpyruvate pyruvate) and a range of concentrations of allosteric inhibitor (0-50 mM malate). Assays were monitored using a Victor2 microplate reader at 25° C. Reactions consisted of […] PPC enzyme variants, 50 mM HEPES pH7.5, 10 mM MgCl2, 10 mM KHCO3 (carbonate substrate), 0.2 mM NADH, and 10 units/ml of malate dehydrogenase. Reaction time was 15 minutes and samples were measured on an ˜40 second interval. For measurement, which monitors loss of NADH, excitation wavelength was 340 nM and emission wavelength was 460 nM.

For data set [2], the system named is Zea mays PPC1 (ZmPPC1, C4 PEPC). The description is as above. Format: biochemical.
Text: as §1, §2, §3

T1 sequence (P04711 whole entry A655V): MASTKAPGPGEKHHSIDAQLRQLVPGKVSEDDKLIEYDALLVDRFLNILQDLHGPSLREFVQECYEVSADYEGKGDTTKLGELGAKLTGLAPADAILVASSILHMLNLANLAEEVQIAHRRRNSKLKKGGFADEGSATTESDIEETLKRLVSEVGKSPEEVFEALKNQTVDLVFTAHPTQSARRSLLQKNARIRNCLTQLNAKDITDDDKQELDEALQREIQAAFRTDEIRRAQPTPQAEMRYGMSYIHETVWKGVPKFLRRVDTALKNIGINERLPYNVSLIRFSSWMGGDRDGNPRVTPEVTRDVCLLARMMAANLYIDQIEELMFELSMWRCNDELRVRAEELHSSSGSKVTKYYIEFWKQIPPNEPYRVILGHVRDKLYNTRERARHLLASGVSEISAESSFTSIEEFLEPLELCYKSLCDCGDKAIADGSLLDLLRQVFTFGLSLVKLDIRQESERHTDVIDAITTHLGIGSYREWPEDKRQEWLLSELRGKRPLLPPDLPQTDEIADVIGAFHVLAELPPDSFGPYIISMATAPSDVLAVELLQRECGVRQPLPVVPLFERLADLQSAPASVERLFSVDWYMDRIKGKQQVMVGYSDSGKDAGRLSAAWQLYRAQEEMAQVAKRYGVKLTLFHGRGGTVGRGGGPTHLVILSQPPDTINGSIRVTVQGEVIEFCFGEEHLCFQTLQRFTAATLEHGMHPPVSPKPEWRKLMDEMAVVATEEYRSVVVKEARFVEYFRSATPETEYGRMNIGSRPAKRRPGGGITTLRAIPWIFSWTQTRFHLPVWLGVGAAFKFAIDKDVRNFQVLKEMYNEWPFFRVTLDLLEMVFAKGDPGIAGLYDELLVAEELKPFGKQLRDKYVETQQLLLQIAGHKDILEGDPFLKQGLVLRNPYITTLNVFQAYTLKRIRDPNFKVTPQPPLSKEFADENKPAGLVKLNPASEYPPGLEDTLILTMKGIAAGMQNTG

B1: ZmPPC1 A651V: engineered Zea mays PPC1 with A651V substitution (A655V in SEQ ID NO:15) (protein)
chain: MASTKAPGPGEKHHSIDAQLRQLVPGKVSEDDKLIEYDALLVDRFLNILQDLHGPSLREFVQECYEVSADYEGKGDTTKLGELGAKLTGLAPADAILVASSILHMLNLANLAEEVQIAHRRRNSKLKKGGFADEGSATTESDIEETLKRLVSEVGKSPEEVFEALKNQTVDLVFTAHPTQSARRSLLQKNARIRNCLTQLNAKDITDDDKQELDEALQREIQAAFRTDEIRRAQPTPQDEMRYGMSYIHETVWKGVPKFLRRVDTALKNIGINERLPYNVSLIRFSSWMGGDRDGNPRVTPEVTRDVCLLARMMAANLYIDQIEELMFELSMWRCNDELRVRAEELHSSSGSKVTKYYIEFWKQIPPNEPYRVILGHVRDKLYNTRERARHLLASGVSEISAESSFTSIEEFLEPLELCYKSLCDCGDKAIADGSLLDLLRQVFTFGLSLVKLDIRQESERHTDVIDAITTHLGIGSYREWPEDKRQEWLLSELRGKRPLLPPDLPQTDEIADVIGAFHVLAELPPDSFGPYIISMATAPSDVLAVELLQRECGVRQPLPVVPLFERLADLQSAPASVERLFSVDWYMDRIKGKQQVMVGYSDSGKDAGRLSAAWQLYRAQEEMAQVAKRYGVKLTLFHGRGGTVGRGGGPTHLVILSQPPDTINGSIRVTVQGEVIEFCFGEEHLCFQTLQRFTAATLEHGMHPPVSPKPEWRKLMDEMAVVATEEYRSVVVKEARFVEYFRSATPETEYGRMNIGSRPAKRRPGGGITTLRAIPWIFSWTQTRFHLPVWLGVGAAFKFAIDKDVRNFQVLKEMYNEWPFFRVTLDLLEMVFAKGDPGIAGLYDELLVAEELKPFGKQLRDKYVETQQLLLQIAGHKDILEGDPFLKQGLVLRNPYITTLNVFQAYTLKRIRDPNFKVTPQPPLSKEFADENKPAGLVKLNPASEYPPGLEDTLILTMKGIAAGMQNTG
Usually Km stands for the substrate concentration at which the rate is half of its maximum. For B1, in data set [1], the “increase in catalytic efficiency relative to wt ZmPPC1” value was over 7 fold. The “effects of the allosteric inhibitor malate relative to wt ZmPPC1” value in data set [2] is “greatly reduce”. In data set [2] (0-7.5 mM phosphoenolpyruvate, 25° C, HEPES pH7.5, read-out: Km PEP), the Michaelis constant (Km) was determined as 477 ± 42 µM. Further, the Vmax in data set [2] (25° C, HEPES pH7.5) was 12.84 ± 0.89 units/mg. Further, the “effect of malate on enzyme” value in data set [2] (at 50 mM malate) is “wholly unaffected”. The “activity of C4 PEPC” value in data set [2] (substitution introduced into maize C4 PEPC (ZmPPC1)) is given as “increased activity”.
